From US20100291089A1, “LIGAND OF REGULATING IMMUNE RESPONSE, AND USE THEREOF IN TREATING AN IMMUNE RESPONSE-RELATED DISEASE” (POSTECH ACADEMY-INDUSTRY FOUNDATION, priority 2005, published 2010)
Where no end group is shown, it is not given here. [ ]: non-standard residue; d: D form.

B1: SAA: Serum amyloid A, multi-functional apolipoprotein, 12- to 14-kDa, SEQ ID NO:19 (protein, listed as Homo sapiens)
chain: MKLLTGLVFCSLVLGVSSRSFFSFLGEAFDGARDMWRAYSDMREANYIGSDKYFHARGNYDAAKRGPGGVWAAEAISDARENIQRFFGHGAEDSLADQAANEWGRSGKDPNHFRPAGLPEKY

Key:
Type in all cases: cell-based, human
RA FLS [1] = test: Apoptosis assay (MTT, DNA fragmentation ELISA) in RA FLS; conditions: for serum starvation-induced apoptosis (MTT assay, DNA fragmentation ELISA): 72 h
Description: Synoviocyte apoptosis was induced via 3 days of serum deprivation, or by treating the cells for 12 h with either SNP (0.7 mM) or anti-Fas IgM (0.7 μg/ml) plus cyclohexamide (CHX; 1 μg/ml). The degree of apoptosis was then evaluated via MTT assay and ELISA for DNA fragmentation. In the MTT assay, FLS were seeded in 24-well culture plates at a density of 2×10^4 cells/well. After 96 h of incubation with SAA (SEQ ID NO:19) or media alone, MTT solution was added to each of the wells, and then incubated for 2 additional hours. The reaction was halted via the removal of MTT. Thereafter, DMSO (200 μL) was added in order to solubilize the formazan crystals. The plates were then subjected to 5 minutes of gentle shaking in order to ensure that the crystals had dissolved completely, and the absorbance was read at 540 nm with a microplate reader. The cellular DNA fragmentation assay was conducted using an ELISA kit (Roche Applied Science), based on the quantitative sandwich ELISA principle, using two mouse monoclonal antibodies (Roche Applied Science) targeted against DNA and 5-bromo-2′-deoxyuridine (BrdU).
In brief, the BrdU-labeled DNA fragments of the samples were bound to the immobilized anti-DNA antibody, fixing it within the wells of a microtiter plate. The immune-complexed BrdU-labeled DNA fragments were then denatured and fixed to the surfaces of the plates via the application of microwave irradiation. In the final step, the anti-BrdU peroxidase conjugate was allowed to react with the BrdU that had been incorporated into the DNA. After the removal of the unbound peroxidase conjugates, the quantity of peroxidase bound within the immune complex was determined photometrically, using TMB as a substrate.

OA FLS = test: Cell proliferation assay ([3H]-thymidine incorporation, cell counts) in OA FLS; conditions: 72 h
Description: (§1) Fibroblast-like synoviocytes (FLS) were prepared from synovial samples obtained from patients suffering from RA and osteoarthritis (OA), all of whom were also undergoing total joint replacement surgery. The FLS were isolated from the synovial tissues in accordance with a previously described procedure (Cho, C. S., M. L. Cho, S. Y. Min, W. U. Kim, D. J. Min, S. S. Lee, S. H. Park, J. Choe, and H. Y. Kim. 2000. CD40 engagement on synovial fibroblast up-regulates production of vascular endothelial growth factor. J. Immunol. 164: 5055-5061).
(§2) In brief, fresh synovial tissues were minced into 2- to 3-mm pieces, then treated for 4 h with 4 mg/ml type I collagenase (Worthington Biochemical), and maintained in Dulbecco's Modified Eagle's Medium (DMEM) containing 10% FBS at 37° C. in an atmosphere containing 5% CO2. […] MH7A cells, the immortalized synoviocytes that harbor the SV40 T antigen, were grown in DMEM supplemented with 10% FBS, as previously described (Miyazawa, K, A. Mori, and H. Okudaira. 1998. Establishment and characterization of a novel human rheumatoid fibroblast-like synoviocyte line, MH7A, immortalized with SV40T antigen. J. Biochem. 124: 1153-1162), and then employed in some of the experiments. Human umbilical vein endothelial cells (HUVECs) were isolated from fresh human umbilical cords via collagenase (Worthington Biochemical) digestion, and then maintained in 20% FBS-containing M-199 medium (Sigma, St. Louis, Mo.), as previously described. All HUVECs were used after no more than five passages.
(§3) The RA FLS, OA FLS, and HUVECs were plated onto 24-well culture dishes at a density of 2×10^4 cells/well, and then permitted to attach overnight. After 24 h of serum starvation, the cells were treated for 72 h with a variety of mitogens. [^3H]-thymidine (1 μCi) was added to each of the wells prior to the final 6 h of incubation. Cell growth was also evaluated via cell counts. Control and mitogen-treated cells were harvested by trypsinization, and the number of cells was determined with a hemocytometer, under ×100 magnification.

HUVECs = test: HUVEC wounding migration assay; conditions: SAA 5 μM, WKYMVm 10 nM, VEGF 20 ng/ml; 12 h
Description: […] After 12 h of incubation, migration was quantitated via counts of the cells migrating beyond the reference line. For the tube formation assay, the HUVECs were seeded on a layer of previously polymerized Matrigel (BD Biosciences) with SAA (SEQ ID NO:19) (5 μg/ml), WKYMVm (SEQ ID NO:5) peptide (10 nM), a specific ligand for FPRL1 (32, 33) or VEGF (20 ng/ml). After 18 h of incubation, the cell morphology was visualized via phase-contrast microscopy and photographed.

RA FLS [2] = test: Cell proliferation assay ([3H]-thymidine incorporation, cell counts) in RA FLS; conditions: 72 h
Description: as §1, §2, §3

RA FLS [3] = test: Western blot analysis of signaling molecules in RA FLS; conditions: for time of peak cyclin D1 expression: SAA 3 μM or WKYMVm 10 nM
Description: RA FLS were incubated for 24 h in DMEM without FBS, and then SAA (SEQ ID NO:19) (3 μM) was added to RA-FLS for the indicated times. The treated RA-FLS was then washed twice in phosphate-buffered saline (PBS), dissolved in sample buffer (50 mM Tris-HCl, 100 mM NaCl, 0.1% sodium dodecyl sulfate (SDS), 1% NP-40, 50 mM NaF, 1 mM Na3VO4, 1 μg/ml aprotinin, 1 μg/ml pepstatin, and 1 μg/ml leupeptin), boiled, separated via SDS-polyacrylamide gel electrophoresis, and transferred to nitrocellulose membranes. After immunoblot analysis with phospho-ERK1/2 (Thr 202/Tyr 204), phospho-Akt (Ser 473), phospho-STAT3 (Tyr 705), Cylin D1, or Bcl-2 antibodies, the membranes were stripped and re-incubated with anti-Actin antibody in order to detect total protein amounts.

RA FLS [4] = test: Intracellular Ca2+ measurement (Fluo3-AM) in RA FLS
Description: The isolated FLS were incubated with Fluo3-AM working solution, containing 0.03% plutonic F-127 (the final concentration of Fluo3-AM was 20 μmol·L^−1) for 1 h at 37° C. After incubation, the cells were washed three times with normal or Na^+- and K^+-free Tyrode's solution, at 25° C. in order to remove the extracellular Fluo3-AM. Fluo3-AM fluorescence in the cells was elicited at 488 nm with a high-power Ar^+ laser, and the emission bands were detected at 530 nm with a photomultiplier. The fluorescence signal was detected using a confocal laser scanning system (Biorad Lasersharp MRA2, Oxfordshire, UK), equipped with a Nikon E-600 Eclipse microscope. The fluorescence intensity (FI) was measured both prior to (FI0) and after (FI) the addition of serum amyloid A (SAA) or phorbol-12-myristate-13-acetate (PMA) to either the normal the Na^+- and K^+-free Tyrode's solution. The change in [Ca^2+]i, was expressed in terms of the (FI−FI0)/FI0 ratio. A total of 50-120 images were scanned in each cell.

| Molecule | serum starvation-induced apoptosis (MTT assay, DNA fragmentation ELISA) (RA FLS [1]) | DNA synthesis activity / proliferation ([3H]-thymidine incorporation) (OA FLS) | migratory activity of HUVECs relative to control cells (HUVECs) | DNA synthesis activity / proliferation ([3H]-thymidine incorporation) (RA FLS [2]) | time of peak cyclin D1 expression (RA FLS [3]) [h] | activation of ERK and Akt (RA FLS [3]; WKYMVm 1 to 1000 nM) | release of intracellular Ca2+ (RA FLS [4]; WKYMVm 10 nM) | DNA fragmentation induced by SNP (0.7 mM) or anti-Fas (0.7 μg/ml) plus CHX (1 μg/ml) (RA FLS [1]; SAA 3 μM, 12 h) | cell numbers (OA FLS) | concentration of maximal effect on DNA synthesis (OA FLS) [µM] | cell numbers (RA FLS [2]) | concentration of maximal effect on DNA synthesis (RA FLS [2]) [µM] | earliest detectable ERK1/2 and Akt phosphorylation after stimulation (RA FLS [3]; 3 μM SAA) [min] | increase in intracellular Ca2+ compared to basal levels (RA FLS [4]; RA FLS, SAA 3 μM) [fold] |
| --- | --- | --- | --- | --- | --- | --- | --- | --- | --- | --- | --- | --- | --- | --- |
| WKYMVm: specific agonist peptide for FPRL1, SEQ ID NO:5 (WKYMV[dM]; listed as Homo sapiens) | mitigating starvation-induced cell death | not OA FLS | approximately 3 times | dose-dependent increase | 4 | dose and time-dependent activation | mimicked |  |  |  |  |  |  |  |
| B1 | dose-dependent inhibition | increased in a dose-dependent fashion | approximately 3 times | increased in a dose-dependent fashion | 4 |  |  | blocked almost completely | dose-dependently increased | 5 | dose-dependently increased | 5 | 1 | 2.3 |
